Measurements: article PMC7058617 (Signal Transduction and Targeted Therapy, 2020)

What was measured:
[1] = target: PD-L1 extracellular domain (PD-L1-ECD) (UniProt Q9NZQ7); assay: SPR; conditions: bispecific antibody
[2] = target: human CD47 extracellular domain (CD47-ECD) (human) (UniProt Q08722); assay: SPR; conditions: bispecific antibody
[3] = target: T1, human CD47 extracellular domain (CD47-ECD) (human, UniProt Q08722, N-linked glycosylation observed at all five potential sites in the complex structure (N32 and N55 among them)); assay: SPR; h4C1 and CD47-ECD proteins (WT, N32A, N55A); who was immobilised and the conditions are not given; conditions: both partners purified
T1 construct: CD47, human, extracellular domain; also called WT CD47-ECD; human CD47-ECD antigen
T1 sequence (Q08722 19-141): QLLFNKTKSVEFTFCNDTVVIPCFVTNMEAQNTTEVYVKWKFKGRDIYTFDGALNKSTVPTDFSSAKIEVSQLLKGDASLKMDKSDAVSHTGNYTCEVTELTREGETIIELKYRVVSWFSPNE

Chain of PD-L1 extracellular domain (PD-L1-ECD) (Q9NZQ7 19-238): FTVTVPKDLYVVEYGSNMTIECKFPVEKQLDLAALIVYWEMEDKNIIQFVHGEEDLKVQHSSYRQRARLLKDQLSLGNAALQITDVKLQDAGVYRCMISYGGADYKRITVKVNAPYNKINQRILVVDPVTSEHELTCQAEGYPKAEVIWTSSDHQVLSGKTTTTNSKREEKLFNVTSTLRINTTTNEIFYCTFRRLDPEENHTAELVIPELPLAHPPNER
Chain of human CD47 extracellular domain (CD47-ECD) (human) (Q08722 19-141): as the sequence (Q08722 19-141) above

Kd [1] | Kd [2] | Kd [3] | Molecule
740 pM | 17400 pM | – | CD47/PD-L1 dual-targeting bispecific antibody (DVD-Ig format) (from UniProt P01861)
– | – | 850 pM | Humanized 4C1 (h4C1) monoclonal antibody (antibody, V domains shown, Humanised from the murine mAb m4C1 (raised in mice immunised with human CD47); also called h4C1 mAb) VH: QVQLVQSGAEVKKPGASVKVSCKASGYTFTSYVMHWVRQAPGQRLEWMGYINPYNDGTKYNEKFKGKATLTSDKSTSTAYMELSSLRSEDTAVYYCARTEGHFYVSWFAYWGQGTLVTVSS VL: DIQMTQSPSSLSASVGDRVTISCRTSQDISNYLNWYQQKPGKAPKLLIYYTSRLHSGVPSRFSGSGSGTDYTFTISSLQPEDIATYYCQQGNTLPFTFGQGTKLEIK
